Experimental data as given in article PMC3763527.

Legend:
Assay in all cases: optical tweezers force spectroscopy; single-chain clamp held by two 777-bp DNA handles between streptavidin on a biotinylated quartz slide and an anti-digoxigenin-coated 2 µm bead in the laser trap; stage moved at 100 nm/s; trap stiffness 0.15 pN/nm; buffer B (100 mM sodium phosphate, 150 mM sodium chloride, pH 7.2); rupture of the one subunit-subunit interface that can open within the chain
[1] = target: single-chain S. cerevisiae PCNA with cysteines at K107 (first subunit) and F185 (third subunit) (S. cerevisiae)
[2] = target: single-chain E. coli β-clamp with cysteines at E64 (first subunit) and E314 (second subunit) (E. coli)
[3] = target: single-chain E. coli β-clamp with cysteines at G102 (first subunit) and E298 (second subunit) (E. coli)
[4] = target: single-chain S. cerevisiae PCNA with cysteines at D122 (first subunit) and D223 (third subunit) (S. cerevisiae)

Substance: single-chain S. cerevisiae PCNA with cysteines at K107 (first subunit) and F185 (third subunit)
- rupture force of the subunit interface [1]: 1.7 pN

Substance: single-chain E. coli β-clamp with cysteines at E64 (first subunit) and E314 (second subunit)
- rupture force of the subunit interface [2]: 5.8 pN

Substance: single-chain E. coli β-clamp with cysteines at G102 (first subunit) and E298 (second subunit)
- rupture force of the subunit interface [3]: 12 pN

Substance: single-chain S. cerevisiae PCNA with cysteines at D122 (first subunit) and D223 (third subunit)
- rupture force of the subunit interface [4]: 11 pN
